Reference: patent US20230227514A1, “BETA-ARRESTIN COMPOSITIONS AND ASSOCIATED METHODS” (Duke University, priority 2020, published 2023)

What was measured:
Type in all cases: cell-based
[1] = biological target: T1, D2 dopamine receptor (D2R) (Homo sapiens, UniProt P14416); assay: BRET dose-response assay of βarrestin2 construct recruitment to D2R-RlucII; settings: D2R-RlucII with YFP constructs; dopamine 15 min; compared with YFP-βarrestin2
T1 construct: expressed in transfected cells
Description: HEK-293 cells were transiently transfected with D2R-RlucII along with YFP-βarr2-WT, YFP-βarr2-SUMO1 or YFP-βarr2-Ub and incubated with the indicated concentrations of dopamine for 15 min. BRET signals were measured as described in Example 1 herein, and changes following agonist treatment are expressed as a percentage of the BRET signal observed in unstimulated cells (top panel). […] The histogram (bottom panel) represents Bmax values of agonist induced BRET as means±SEM of 4 independent experiments performed in duplicates. Significance of changes in energy transfer was established by one-way ANOVA comparing signals measured for the recruitment of βarr2 fusion proteins to D2R-RlucII *p<0.01; **p<0.001.
BRET assays. […] BRET readings were acquired using Synergy Neo2 plate reader and obtained 5 min after manual addition of Rluc substrate, coelenterazine h (Promega) to a final concentration of 5 μM.
(§1) The BRET signal generated was determined by calculating the ratio of light emitted by YFP (520-550 nm) over the light emitted by Rluc (440-480 nm). These values were then corrected by subtracting the background signal (detected when the Rluc-tagged construct was expressed without acceptor) from the BRET signal detected in cells co-expressing both donor and acceptor constructs. […]

[2] = biological target: T2, β1 adrenergic receptor (β1AR) (Homo sapiens, UniProt P08588); assay: Confocal trafficking and colocalization with β1AR; settings: HEK-293 cells with stable β1AR expression
T2 construct: expressed in transfected cells
T2 sequence (P08588 whole entry, species assumed): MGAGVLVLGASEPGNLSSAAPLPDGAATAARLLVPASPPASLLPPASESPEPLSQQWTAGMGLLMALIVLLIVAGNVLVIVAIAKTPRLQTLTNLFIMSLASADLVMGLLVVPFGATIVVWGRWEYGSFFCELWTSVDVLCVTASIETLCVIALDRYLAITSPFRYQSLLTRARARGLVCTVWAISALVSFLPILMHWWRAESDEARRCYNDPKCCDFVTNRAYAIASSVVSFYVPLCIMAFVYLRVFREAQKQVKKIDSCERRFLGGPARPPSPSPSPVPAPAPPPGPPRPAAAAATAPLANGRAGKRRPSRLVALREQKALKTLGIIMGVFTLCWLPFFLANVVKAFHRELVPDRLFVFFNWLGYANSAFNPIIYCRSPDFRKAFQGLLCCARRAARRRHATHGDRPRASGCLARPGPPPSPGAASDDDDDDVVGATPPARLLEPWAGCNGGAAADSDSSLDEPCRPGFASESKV
Description: Immunostaining and confocal microscopy. […] Twenty-four hours post-transfection, cells were serum-starved for 4 h, and either left untreated or treated with respective agonists for the indicated times in the Figure descriptions. After stimulation, cells were fixed with 5% formaldehyde diluted in phosphate-buffered saline (PBS), permeabilized with 0.1% Triton in PBS containing 2% bovine serum albumin for 20 min and incubated at room temperature with appropriate primary antibody. The next day, cells were washed three times with PBS and incubated with Alexa594 conjugated secondary antibody for 1 h, followed by repeated washes using PBS. Confocal images were acquired using Zeiss LSM510 laser-scanning microscope using multitrack sequential with excitation (488 and 568 nm) and emission (BP 505-550 nm and LP 585 nm) filter sets. Images (1024×1024 pixels) were collected using either a 63× or 100× oil immersion lens. Images were processed for Figure presentation using Adobe Photoshop software, and any increase or decrease of brightness/contrast was applied to the entire image. The nuclear rim localization of YFP-βarrestin2-SUMO1 is readily visualized in cells with low to moderate expression of YFP-protein. In cells with high expression, this localization is present, and can be discerned by enlarging sections of the nuclear rim.

β2AR = biological target: T3, β2AR (Homo sapiens, UniProt P07550); assay: BRET titration assay of βarrestin2 construct recruitment to β2AR-Rluc; settings: HEK-293T cells; β2AR-Rluc with YFP acceptor constructs; isoproterenol 1 μM, 5 min; compared among βarrestin2 constructs
T3 construct: Flag (N); expressed in transfected cells
From the text: BRET assays. […] Titration assays were first completed, which allowed determination of the specificity of association among different interaction partners. See Nagi and Shenoy. 2019, supra; Gales et al. 2005. Nature methods 2:177-184; Nagi et al. 2015. Cellular and molecular life sciences: CMLS 72:3543-3557; Audet and Pineyro. 2011. Methods in molecular biology 756:149-163; and Rebois et al. 2006. Journal of cell science 119:2807-2818. To achieve this, a fixed amount of the donor-tagged (Renilla luciferase, Rluc) construct was co-transfected with increasing amounts of the corresponding interaction partner bearing the acceptor (YFP). […] BRET readings were acquired using Synergy Neo2 plate reader and obtained 5 min after manual addition of Rluc substrate, coelenterazine h (Promega) to a final concentration of 5 μM.
as §1, with “constructs. Agonist-induced BRET values were calculated by subtracting net BRET values of non-stimulated conditions from net BRET values corresponding to the stimulated conditions.” for “constructs.”

T1 sequence (P14416 whole entry): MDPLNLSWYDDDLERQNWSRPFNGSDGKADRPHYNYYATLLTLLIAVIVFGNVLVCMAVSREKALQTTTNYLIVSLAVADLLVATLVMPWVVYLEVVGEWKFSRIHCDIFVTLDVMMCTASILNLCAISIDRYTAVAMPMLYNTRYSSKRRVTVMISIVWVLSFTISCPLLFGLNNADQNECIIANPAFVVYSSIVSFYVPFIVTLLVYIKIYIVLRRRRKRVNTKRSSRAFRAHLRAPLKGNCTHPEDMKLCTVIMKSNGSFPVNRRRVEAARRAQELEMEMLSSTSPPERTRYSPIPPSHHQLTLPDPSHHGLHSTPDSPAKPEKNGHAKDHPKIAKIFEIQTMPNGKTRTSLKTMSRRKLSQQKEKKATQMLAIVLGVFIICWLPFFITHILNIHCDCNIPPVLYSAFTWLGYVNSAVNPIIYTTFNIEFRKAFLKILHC

Substance: βarrestin2-SUMO1: rat βarrestin2 polypeptide fused to human SUMO1 (SEQ ID NO:1); used YFP- or Flag-tagged
- agonist-mediated increase in energy transfer (net BRET) with D2R [1]: greater
- association with β1AR after isoproterenol activation (confocal) [2]: strongly and stably
- agonist-induced net BRET change for interaction with β2AR (β2AR): highest change in the net BRET value
